From patent US20230346916A1 come the findings set out here.

Assay [1] deals with soluble human DPP4 (sDPP4) receptor (human) (UniProt P27487). Briefly: ELISA, RBD-Fc coated at 1 µg/ml, sDPP4 serially diluted. In general terms: In an ELISA, binding on a coated surface is turned into a signal by an enzyme label.
Assay [2] addresses bat ACE2 (bACE2) receptor transiently expressed on 293T cells (bat).

Sequence of soluble human DPP4 (sDPP4) receptor (human) (P27487 39-766 limits assumed): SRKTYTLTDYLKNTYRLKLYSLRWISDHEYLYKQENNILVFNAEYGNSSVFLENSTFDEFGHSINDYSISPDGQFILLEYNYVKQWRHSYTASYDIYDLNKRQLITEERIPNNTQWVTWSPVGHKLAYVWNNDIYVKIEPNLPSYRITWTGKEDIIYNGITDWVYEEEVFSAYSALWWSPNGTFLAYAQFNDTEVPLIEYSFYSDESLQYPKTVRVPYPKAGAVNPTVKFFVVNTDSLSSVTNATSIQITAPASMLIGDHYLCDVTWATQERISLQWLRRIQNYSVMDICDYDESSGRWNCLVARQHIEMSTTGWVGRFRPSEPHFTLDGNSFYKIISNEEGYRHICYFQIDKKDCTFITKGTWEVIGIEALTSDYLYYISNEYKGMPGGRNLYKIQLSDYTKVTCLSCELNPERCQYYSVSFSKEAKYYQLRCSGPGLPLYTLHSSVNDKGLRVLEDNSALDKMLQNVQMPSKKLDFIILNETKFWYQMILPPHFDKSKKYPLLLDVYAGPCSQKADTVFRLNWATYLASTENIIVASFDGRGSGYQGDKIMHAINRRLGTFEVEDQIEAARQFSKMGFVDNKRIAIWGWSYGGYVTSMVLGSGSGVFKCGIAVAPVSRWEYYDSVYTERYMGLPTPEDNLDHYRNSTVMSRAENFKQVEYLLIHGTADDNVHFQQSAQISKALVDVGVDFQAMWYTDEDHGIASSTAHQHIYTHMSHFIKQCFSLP

Broadly, the EC50 is the concentration needed to bring the measured effect to its halfway point. Read a high EC50 as lower potency in that assay. In turn, “MERS-CoV RBD-Fc fusion protein (residues 377-588 of MERS-CoV S protein with a C-terminal hFc) (from UniProt K9N5Q8 377-588)” returned an EC50 in assay [1] of 0.92 µg/mL.

In assay [2], “SARS-CoV RBD-Fc fusion protein (residues 318-510 of SARS-CoV S protein with a C-terminal hFc) (from UniProt P59594 318-510)” gave a half-maximal effective concentration (EC50) of 0.96 µg/mL.
